# Reference: patent US8431396B2, “Anti-angiogenic peptides” (The Cleveland Clinic Foundation, priority 2003, dated 2013)
# T1: VEGF (Homo sapiens, UniProt P15692)
# T1 construct: purchased Genentech (gift, not bought)
# T1 sequence (P15692 27-191 isoform P15692-4): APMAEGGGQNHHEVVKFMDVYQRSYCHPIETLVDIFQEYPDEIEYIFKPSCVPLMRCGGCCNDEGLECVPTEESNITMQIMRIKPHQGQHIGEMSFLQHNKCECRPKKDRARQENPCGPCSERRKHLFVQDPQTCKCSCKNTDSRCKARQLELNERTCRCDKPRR
# B1: TIMP3: tissue inhibitor of metalloproteinases-3; recombinant human form expressed in NSO myeloma cells, or wild-type expressed in transfected cells (protein, listed as Homo sapiens)
# chain: MTPWLGLIVLLGSWSLGDWGAEACTCSPSHPQDAFCNSDIVIRAKVVGKKLVKEGPFGTLVYTIKQMKMYRGFTKMPHVQYIHTEASESLCGLKLEVNKYQYLLTGRVYDGKMYTGLCNFVERWDQLTLSQRKGLNYRYHLGCNCKIKSCYYLPCFVTSKNECLWTDMLSNFGYPGYQSKHYACIRQKGGYCSWYRGWAPPDKSIINATDP
# What was measured:
# PDGFR-β = target: T2, PDGFR-β (Homo sapiens, UniProt P09619); assay: [125I]PDGF-BB binding to PAE-PDGFR-β cells; conditions: recombinant TIMP3 or overexpression
# T2 construct: expressed in transfected cells; host or cells: porcine aortic endothelial (PAE) cells
# Description: Radioligand binding is expressed as percent binding and is the mean±s.e.m. of triplicate samples. […] All values are expressed as mean±s.e.m. of triplicate samples. […] Binding is expressed as mean±s.e.m.
# Data were analyzed by Scatchard plot analyses.
# PAEKDR cells [1] = assay: VEGF-stimulated proliferation ([3H]thymidine) of transfected PAEKDR cells; assay type: cell-based, porcine; conditions: VEGF 15 ng/ml
# Description: Cells were seeded at a density of 5000 cells/well in 24 well culture plates and cultured for 24 h in growth medium. […] High molecular weight DNA was precipitated using 5% trichloroacetic acid at 4° C. for 30 min After two washes with ice-cold H2O, 3H radioactivity was solubilized in 1 N NaOH for 20 min at room temperature, acidified by addition of 2 N HCl, and measured using a liquid scintillation counter. Each sample was assayed in triplicate and the assays were repeated at least twice.
# MMPs = assay: Reverse zymography of ECM and CM of transfected PAEKDR cells; assay type: biochemical; conditions: PAEKDR cells expressing WT or mutant TIMP3
# Description: Conditioned medium, cell lysates and ECM fractions from transfected cells were prepared as described previously (Qi et al., 2002). Equal amounts of protein were loaded onto a 12% gel with 1 mg/ml gelatin plus RPE cell-conditioned media, as a source of MMPs, for reverse zymography and processed as described previously (Pavloff et al., 1992).
# VEGF = target: T1, VEGF; assay: Solid-phase direct binding of [125I]VEGF to wells coated with TIMPs
# endothelial cells = assay: Competitive displacement of [125I]TIMP3 from the surface of endothelial cells; assay type: binding; conditions: unlabeled VEGF 2 μg/ml, TIMP3 10 μg/ml
# Description: Immunoprecipitation of cell lysates with antibodies specific for TIMP3 was followed by immunoblotting with antibodies specific for KDR (top). As a control for KDR receptor, cell lysates were immunoprecipitated with anti-bodies specific for KDR and probed with antibodies specific for KDR Immunoprecipitation with antibodies specific for KDR and immunoblotting with antibodies specific for TIMP3 (bottom) were carried out on PAE-KDR cells exposed to recombinant TIMP3 or PAE-KDR-vector and PAE-KDR cells overexpressing TIMP3, to confirm the interaction. […] Competition with unlabeled TIMP3 was carried out to ensure specificity. […] (E) In vivo interaction of KDR and TIMP3 in human placenta. Immunoprecipitation using antibodies specific TIMP3 (top) and KDR (bottom) was followed by immunoblotting with antibodies specific for KDR (top) and TIMP3 (bottom).
# ERK1 and ERK2 = ERK1 and ERK2 phosphorylation (immunoblot); assay type: cell-based; conditions: recombinant TIMP3
# Description: PDGF-BB-mediated phosphorylation was examined similarly in PAESPDGFR-β cells (anti-PDGFR-β; top right panel). […] PDGF-BB-mediated phosphorylation of PDGFR-β in PAE-PDGFR-β cells overexpressing TIMP3 (top right). KDR protein or PDGFR-β protein was analyzed by both immunoprecipitation and immunoblotting with antibodies specific for KDR (left) or for PDGFR-β (right; A and B, second panels from top). […] Total protein levels of ERK were determined by immunoblotting with antibodies specific for ERK1/2 (anti-ERK1/2; A and B, bottom).
# Cell fractions, prepared as described earlier, or immunoprecipitates of the lysates with the indicated antibodies, were subjected to SDS-PAGE. Proteins were detected with horseradish peroxidase-conjugated antibodies specific for either rabbit or mouse IgG (Amersham Pharmacia, Piscataway, N.J.) followed by enhanced chemiluminescence.
# PAEKDR cells [2] = assay: Tube formation assay in type 1 collagen gels; assay type: cell-based, porcine; conditions: 50 ng/ml VEGF; three-dimensional collagen gels
# Description: Type 1 collagen was mixed with 10×DMEM and 0.1 M NaOH (8:1:1), adjusted to a solution containing 10 μg/ml growth factor reduced matrigel matrix (BD, Biosciences), and then distributed in 48-well dishes. […] After 4 h of incubation at 37° C., a second layer of collagen was added, and cultures were kept under the same conditions as above described. Tube formation was examined using a phase-contrast microscopy at the indicated time points.
# PAE-PDGFR-β cells = assay: Endothelial cell proliferation in response to PDGF-BB; assay type: cell-based, porcine; conditions: recombinant TIMP3 (1 and 5 μg/ml) or overexpression
# KDR = target: T3, KDR (Homo sapiens, UniProt P35968); assay: VEGF-stimulated KDR tyrosine phosphorylation in membrane fractions (Western blot); assay type: cell-based; conditions: WT-TIMP3 cells; data not shown
# T3 construct: To determine whether these receptor isoforms represent full-length VEGFR-2; expressed in transfected cells; host or cells: porcine aortic endothelial (PAE) cells
# Description: 2 day serum free conditioned medium (CM) was collected from subconfluent cells cultured on six-well plates (Costar). In some cases the CM was further concentrated with heparin-agarose gels (Bio-rad). The cell monolayer was dislodged from the culture plates following a 10 min incubation in Ca2+, Mg2+ free phosphate buffered saline (PBS) containing 2.5 mM EDTA. After several rinses in PBS and water, the ECM was scraped in a small volume of electrophoresis sample buffer without reducing agent for analyses. Plasma membrane (PM) fractions were prepared from cells centrifuged at 500 g and 4° C. for 5 min The supernatant was discarded and the cell pellets were resuspended in PBS containing protease inhibitors, lysed with a 26-gauge syringe needle, and centrifuged at 3,000 g at 4° C. for 15 minutes. The supernatant was centrifuged at […] at 4° C. for 1 hr. The PM pellets were suspended in lysis buffer containing protease inhibitors. In some instances the membrane fraction of cells was prepared using ProteoExtract Subcellular Proteome Extaction Kit (EMD Biosciences, Inc).
# Cell fractions or immunoprecipitates of the lysates with the indicated antibodies were subjected to SDS-PAGE. Proteins were detected with either a HRP-conjugated anti-rabbit or anti mouse IgG antibody (Amersham Pharmacia Biotech., Piscataway, N.J.) followed by ECL. […]
# PAE-KDR cells = assay: Endothelial cell migration toward VEGF (modified Boyden chamber); assay type: cell-based, porcine
# Description: (B) Comparison of the effects of rTIMP3, rTIMP1 and BB3103 on VEGF165-induced migration of PAE-KDR cells. […] In all migration experiments, migrating cell number is expressed as mean±s.e.m. of quadruplicate samples. All experiments were done in triplicate. Open symbols, KDR-vector; closed symbols, KDR-TIMP3.*, P<0.01; **, P<0.05.
# A modified Boyden chamber assay for migration and proliferation assays were carried out as described.
# T3 sequence (P35968 20-1356): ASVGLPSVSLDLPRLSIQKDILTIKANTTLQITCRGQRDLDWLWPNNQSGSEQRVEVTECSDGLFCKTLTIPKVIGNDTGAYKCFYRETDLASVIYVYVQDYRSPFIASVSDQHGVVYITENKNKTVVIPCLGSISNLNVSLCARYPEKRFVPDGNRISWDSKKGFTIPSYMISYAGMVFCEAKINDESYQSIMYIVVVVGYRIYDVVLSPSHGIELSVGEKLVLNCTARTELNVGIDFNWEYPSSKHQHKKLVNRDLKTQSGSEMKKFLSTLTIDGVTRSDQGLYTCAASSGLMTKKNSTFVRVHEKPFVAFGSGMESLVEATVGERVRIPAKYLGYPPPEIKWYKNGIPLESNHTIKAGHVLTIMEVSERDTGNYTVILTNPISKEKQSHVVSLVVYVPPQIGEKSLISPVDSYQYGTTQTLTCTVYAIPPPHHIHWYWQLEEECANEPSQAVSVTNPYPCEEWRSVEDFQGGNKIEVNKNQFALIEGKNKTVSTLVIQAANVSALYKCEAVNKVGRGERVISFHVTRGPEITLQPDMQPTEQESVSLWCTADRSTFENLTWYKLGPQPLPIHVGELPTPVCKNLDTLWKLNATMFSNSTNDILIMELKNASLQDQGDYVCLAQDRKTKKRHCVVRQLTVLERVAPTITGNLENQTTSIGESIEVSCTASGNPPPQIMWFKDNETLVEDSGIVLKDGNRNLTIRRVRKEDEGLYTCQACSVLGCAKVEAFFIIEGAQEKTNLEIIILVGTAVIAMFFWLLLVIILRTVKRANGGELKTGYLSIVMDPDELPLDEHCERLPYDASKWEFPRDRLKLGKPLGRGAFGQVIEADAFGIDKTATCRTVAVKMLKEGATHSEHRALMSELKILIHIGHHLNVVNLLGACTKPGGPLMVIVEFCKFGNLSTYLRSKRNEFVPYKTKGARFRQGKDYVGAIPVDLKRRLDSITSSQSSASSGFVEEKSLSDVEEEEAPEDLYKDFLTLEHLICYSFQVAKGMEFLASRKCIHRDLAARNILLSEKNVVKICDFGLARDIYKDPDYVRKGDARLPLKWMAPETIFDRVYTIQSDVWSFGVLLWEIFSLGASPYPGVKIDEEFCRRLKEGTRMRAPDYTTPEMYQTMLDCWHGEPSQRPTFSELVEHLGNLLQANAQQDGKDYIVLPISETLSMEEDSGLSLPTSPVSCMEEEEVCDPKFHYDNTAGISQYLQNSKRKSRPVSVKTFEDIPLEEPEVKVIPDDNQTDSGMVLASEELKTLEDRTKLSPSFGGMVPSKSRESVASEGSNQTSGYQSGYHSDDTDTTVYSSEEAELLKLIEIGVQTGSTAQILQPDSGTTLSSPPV
# T2 sequence (P09619 33-1106, species assumed): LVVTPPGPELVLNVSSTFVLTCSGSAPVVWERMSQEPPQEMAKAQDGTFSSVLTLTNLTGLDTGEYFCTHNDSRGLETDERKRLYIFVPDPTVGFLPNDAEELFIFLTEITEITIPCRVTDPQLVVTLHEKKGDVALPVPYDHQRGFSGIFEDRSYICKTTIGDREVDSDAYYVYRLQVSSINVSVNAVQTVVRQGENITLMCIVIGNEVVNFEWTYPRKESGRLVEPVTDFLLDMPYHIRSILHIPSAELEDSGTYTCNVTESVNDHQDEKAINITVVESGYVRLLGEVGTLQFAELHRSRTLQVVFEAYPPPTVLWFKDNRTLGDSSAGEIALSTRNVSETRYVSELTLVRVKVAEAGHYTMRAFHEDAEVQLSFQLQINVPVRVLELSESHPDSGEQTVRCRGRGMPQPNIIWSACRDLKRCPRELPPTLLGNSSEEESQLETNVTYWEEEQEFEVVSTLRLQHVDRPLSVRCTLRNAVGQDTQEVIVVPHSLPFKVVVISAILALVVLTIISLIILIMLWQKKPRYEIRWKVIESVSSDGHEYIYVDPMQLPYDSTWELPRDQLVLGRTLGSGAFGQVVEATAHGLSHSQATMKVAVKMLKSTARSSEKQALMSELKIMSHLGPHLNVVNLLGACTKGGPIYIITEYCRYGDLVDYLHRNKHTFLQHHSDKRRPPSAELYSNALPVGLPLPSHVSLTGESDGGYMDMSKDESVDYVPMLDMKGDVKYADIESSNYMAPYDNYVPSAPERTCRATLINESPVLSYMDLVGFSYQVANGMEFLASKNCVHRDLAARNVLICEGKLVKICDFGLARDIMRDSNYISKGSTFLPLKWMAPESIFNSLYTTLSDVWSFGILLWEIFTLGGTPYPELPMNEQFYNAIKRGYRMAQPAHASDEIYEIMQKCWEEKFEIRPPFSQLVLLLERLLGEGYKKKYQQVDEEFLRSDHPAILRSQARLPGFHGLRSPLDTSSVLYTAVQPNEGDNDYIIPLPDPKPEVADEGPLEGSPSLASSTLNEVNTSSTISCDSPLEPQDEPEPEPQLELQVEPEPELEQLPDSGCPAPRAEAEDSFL
molecule,measurement,setting,value
B1,inhibition of PDGF-BB binding to PAE-PDGFR-β cells,PDGFR-β,Neither recombinant TIMP3 nor overexpression of TIMP3 could inhibit binding of PDGF-BB
same,VEGF-stimulated proliferation of cells expressing TIMP3 variant,PAEKDR cells [1],dramatic attenuation in the VEGF response
same,MMP inhibitory activity in ECM and CM (reverse zymography),MMPs,marked MMP inhibitory species
same,direct binding of [125I]VEGF to coated TIMP,VEGF,did not detect direct binding
same,inhibition of binding of labeled TIMP3 to the surface of endothelial cells,endothelial cells,could inhibit the binding of labeled TIMP3
same,downstream phosphorylation of ERK1 and ERK2 in response to VEGF,ERK1 and ERK2,inhibited in response to VEGF
same,VEGF-stimulated tube formation,PAEKDR cells [2],severely compromised
same,effect on proliferative response to PDGF-BB,PAE-PDGFR-β cells,Neither recombinant TIMP3 nor TIMP3 overexpression affected the proliferative response
same,receptor autophosphorylation after VEGF stimulation,KDR,no receptor autophosphorylation was seen
same,inhibition of endothelial cell migration toward VEGF,"PAE-KDR cells; added exogenously, VEGF165 10 ng/ml",inhibited their migration toward VEGF in a dose-dependent manner
same,dose giving complete inhibition of migration toward VEGF,PAE-KDR cells; recombinant protein added exogenously,3 µg/mL
same,chemotactic response to VEGF121 and VEGF165,PAE-KDR cells; stable expression of TIMP3 in the endothelial cells,attenuation of the chemotactic response
